Results reported in paper PMC2705707 (Journal of Structural and Functional Genomics, 2009).

B1: YgaP (natural protein, E. coli, UniProt P55734 1-174, looked up)
chain: MALTTISPHDAQELIARGAKLIDIRDADEYLREHIPEADLAPLSVLEQSGLPAKLRHEQIIFHCQAGKRTSNNADKLAAIAAPAEIFLLEDGIDGWKKAGLPVAVNKSQPLPLMRQVQIAAGGLILIGVVLGYTVNSGFFLLSGFVGAGLLFAGISGFCGMARLLDKMPWNQRA
B2: YidH (natural protein, E. coli, UniProt P0ADM0 1-115, looked up)
chain: MKISRLGEAPDYRFSLANERTFLAWIRTALGFLAAGVGLDQLAPDFATPVIRELLALLLCLFSGGLAMYGYLRWLRNEKAMRLKEDLPYTNSLLIISLILMVVAVIVMGLVLYAG

Biological target: the molecule itself
Experiment: SEC + other: SDS-PAGE

Protein	stoichiometry N
B1	2
B2	2
